Assay results published in patent publication US20240425846A1.

Assays:
[1] = target: biotinylated human Her2 (HE2-H822R, Acro Biosystems) (human) (UniProt P04626); experiment: deep screening, biphasic dissociation fit, phase 2
[2] = target: biotinylated human Her2 (HE2-H822R, Acro Biosystems) (human) (UniProt P04626); experiment: flow cell kinetic dissociation, ribosome-displayed scFv, buffer wash after Her2-biotin/AF532-streptavidin
[3] = target: biotinylated human Her2 (HE2-H822R, Acro Biosystems) (human) (UniProt P04626); experiment: deep screening, biphasic dissociation fit, phase 1
[4] = target: biotinylated human Her2 (HE2-H822R, Acro Biosystems) (human) (UniProt P04626); experiment: deep screening, equilibrium fit (column DS KD (M))
[5] = target: biotinylated human Her2 (HE2-H822R, Acro Biosystems) (human) (UniProt P04626); experiment: flow cell equilibrium binding, ribosome-displayed scFv, 0.03-100 nM Her2-biotin and 100 nM AF532-streptavidin
[6] = target: biotinylated human Her2 (HE2-H822R, Acro Biosystems) (human) (UniProt P04626); experiment: deep screening, equilibrium fit (column DS KD (M)); remark: listed apart in the source
[7] = target: biotinylated human Her2 (HE2-H822R, Acro Biosystems) (human) (UniProt P04626); experiment: deep screening ('HER2affmat'), ribosome-displayed scFv on flow cell, 5 minutes of wash after 100 nM Her2-biotin:AF532-streptavidin
[8] = target: biotinylated human Her2 (HE2-H822R, Acro Biosystems) (human) (UniProt P04626); experiment: deep screening, equilibrium fit
[9] = target: biotinylated human Her2 (HE2-H822R, Acro Biosystems) (human) (UniProt P04626); experiment: BLI (Octet), Her2-biotin on streptavidin tip, Fab at 20 nM, 1:1 fit; the filing doubts the fit because the response was low

B1: Her2_G98A scFv (scFv)
scFv: MQVQLVQSGAEVKKPGESLKISCKGSGYSFTSYWIAWVRQMPGKGLEYMGLIYPGDSDTKYSPSFQGQVTISVDKSVSTAYLQWSSLKPSDSAVYFCARHDVAYCSSSNCAKWPEYFQHWGQGTLVTVSSGGGGSGGGGSGGGGSQSVLTQPPSVSAAPGQKVTISCSGSSSNIGNNYVSWYQQLPGTAPKLLIYGHTNRPAGVPDRFSGSKSGTSASLAISGFRSEDEADYYCASWDYTLSGWVFGGGTKLTVLGYMASGAEFGSGGQKQAEEAAAKAAADAKAKAEADAKAAEEAAKKAAADAKKKAEA
koff [1]: 0.0134 s⁻¹
koff [2]: 0.000567 s⁻¹
koff [3]: 7.03e-05 s⁻¹
Kd [4]: 24 nM
Kd [5]: 16.2 nM
Kd [6]: 887 nM
fluorescent intensity at the 5-minute wash step [7]: 190
Kd [8]: 886 nM

B2: G98A Fab (Fab)
VH: MQVQLVQSGAEVKKPGESLKISCKGSGYSFTSYWIAWVRQMPGKGLEYMGLIYPGDSDTKYSPSFQGQVTISVDKSVSTAYLQWSSLKPSDSAVYFCARHDVAYCSSSNCAKWPEYFQHWGQGTLVTVSSGGGGSGGGGSGGGGSQSVLTQPPSVSAAPGQKVTISCSGSSSNIGNNYVSWYQQLPGTAPKLLIYGHTNRPAGVPDRFSGSKSGTSASLAISGFRSEDEADYYCASWDYTLSGWVFGGGTKLTVLG
VL: MQVQLVQSGAEVKKPGESLKISCKGSGYSFTSYWIAWVRQMPGKGLEYMGLIYPGDSDTKYSPSFQGQVTISVDKSVSTAYLQWSSLKPSDSAVYFCARHDVAYCSSSNCAKWPEYFQHWGQGTLVTVSSGGGGSGGGGSGGGGSQSVLTQPPSVSAAPGQKVTISCSGSSSNIGNNYVSWYQQLPGTAPKLLIYGHTNRPAGVPDRFSGSKSGTSASLAISGFRSEDEADYYCASWDYTLSGWVFGGGTKLTVLG
Kd [9]: 46.9 nM
